Patent publication CN113480646A (INST BIOPHYSICS CAS; UNIV PEKING FIRST HOSPITAL, dated 2021)

Assays:
[1] = molecular target: T1, 内源过表达的组蛋白H1.4(WT H1.4), Flag fusion expressed from pFLAG-CMV-WT H1.4 in NIH 3T3 cells; assay: Western blot, lysate of transfected NIH 3T3 cells
T1 construct: Overexpressed in mouse NIH 3T3 cells; Tested as SDS cell lysate (50 ug total protein) by Western blot; also called 野生型H1.4

[2] = molecular target: T2, 体外纯化的组蛋白H1.4(WT H1.4), fusion protein expressed from pET-28a-WT H1.4 (Homo sapiens (Human), UniProt P10412 1-219); assay: Western blot, purified protein
T2 construct: Expressed in E. coli BL21(DE3) and purified; 100 ng was loaded, denatured, for the Western blot; also called 野生型H1.4

[3] = molecular target: T3, 体外纯化的H1.4移码突变蛋白(H1.4 K157E fs*), fusion protein expressed from pET-28a-H1.4 K157E; assay: Western blot, 100 ng purified protein
T3 construct: Expressed in E. coli BL21(DE3) and purified; 100 ng was loaded, denatured, for the Western blot; also called Lys157Glu fs*39; H1.4 K157E移码突变体
T3 chain: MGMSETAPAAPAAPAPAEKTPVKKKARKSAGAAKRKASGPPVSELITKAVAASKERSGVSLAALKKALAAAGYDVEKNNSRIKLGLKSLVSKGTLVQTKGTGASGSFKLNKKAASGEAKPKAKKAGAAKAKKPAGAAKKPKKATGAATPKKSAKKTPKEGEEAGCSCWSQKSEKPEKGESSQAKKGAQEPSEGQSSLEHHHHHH

B1: 特异性结合H1.4移码突变蛋白的单克隆抗体 (hybridoma cell line A1) (antibody, mouse IgG1, kappa, V domains shown)
VH: QIQLVQSGPELKKPGETVKISCKASGYTFTDYSMQWMKQAPGKGLKWMGWIDTGTGEPSYADDFKGRFAFSLETSASTAYLQINNLKNEDTATYFCARRSYGYFAFWGQGTLVAVSA
VL: DVVMTQTPLSLPVSLGDQASISCRSSQNIVHVNGNTYLEWYLQKPGQSPKLLIYKVSNRFSGVPDRFSGSGSGTEFTLKISRVEAEDLGVYYCFQGSHVPFTFGAGTKLELKR
notes: also called H1.4移码突变抗体; H1.4移码突变的抗体
Question: Does B1 bind [1]?
Answer: no binding (tested: 50μg total lysate protein)

Question: Does B1 bind [2]?
Answer: no binding (tested: 100ng)

Question: Does B1 bind [3]?
Answer: binds
